Laboratory results as given in the supplement of paper PMC9170038.

Test system: MS2 coat protein
Assay: apparent KD of MS2 coat protein; designed switch direction (-1 OFF switch, 1 ON switch): -1; higher = weaker reporter binding
Outline: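 The apparent KD reported per design is the median over clusters of curve fits to normalised cluster fluorescence. The RNA switches were transcribed on Illumina chips by stalled E. coli RNA polymerase. SNAP-549-labelled MS2 coat protein was titrated from 0.7 or 1.5 nM, doubling up to 3 µM, in Tris-HCl pH 7.5 buffer containing KCl, MgCl2, BSA, DTT, tRNA and Tween-20, with no input, 200 uM small-molecule ligand, or an oligonucleotide input.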

[1] = Eterna round: R95, input ligand: microRNA oligo, concentration not stated
[2] = input ligand: microRNA oligo, concentration not stated
[3] = Eterna round: R95, input ligand: FMN 200 uM
[4] = Eterna round: R95, input ligand: none

Sequence	apparent KD of MS2 coat protein [1]	apparent KD of MS2 coat protein (input ligand: FMN 200 uM)	apparent KD of MS2 coat protein (input ligand: none)	apparent KD of MS2 coat protein [2]	apparent KD of MS2 coat protein [3]	apparent KD of MS2 coat protein [4]
CAGUACUGAGGAUAUACAUGAGGAUCACCCAUGUGUUCCAGCUAGGAAACUAGCAAUAGUAGAAGGCAGUACUG [salish99_ex3_r3_090x] (puzzle: Exclusion 3)	21.3 nM					
AACUCUGAGAAGGAUAUGGUACGGGAAAUGGUACCAGAAGGUUUCACAUGAGGAUCACCCAUGUCGAAUAGUGA [EX6 #68] (Eterna round: R97, puzzle: Exclusion 6)		28.8 nM	27.4 nM			
UAUUCACAAGCGAGAUCCCACAUGAGGAUCACCCAUGUGCUCGUCUUAUAAGGUACUGUGACGAAAGUCACGGUACC [Sensor 3, v1 - 91 v25] (Eterna round: R97, puzzle: Sensor, turn-off variant 1)		19.9 nM	20 nM			
UUUGUUUAUGUAGGAUAUGCCUGGCGUGCCUUCGCAGAAGGACAUGAGGAUCACCCAUGUAUUGCGGUCUGCGUUCAGAUCGCC [salish99_ExNG1_r4_028] (Eterna round: R96, puzzle: Exclusion NG 1)		22.6 nM	21 nM	16.1 nM		
GUUAAACAUGAGGAUCACCCAUGUAAGGAUAUGCUGAGGUAGCGCUGACGUGAAUGAAGCAGAAGGUACAAAUG [Mat - Mod of JL D64] (puzzle: Exclusion 1)	93.3 nM				66.4 nM	62 nM
UGGUUGUCAGGAUAUACGGUUUUUAACUUUAGUUUUAUAUUGUAGAAGGGACAUGAGGAUCACCCAUGUUACGU [LRO-Excl4-11-Bluer Omei Mod] (Eterna round: R97, puzzle: Exclusion 4)		29.5 nM	26.5 nM			
UCAAGCUUUAGGCGUGUGAACAUGAGGAUCACCCAUGUAUUUUUGGUUAGGAGUUCUGUAAGGGAUGCUCGUCUUAU [JR_SWV3TOV1_Sub092] (puzzle: Sensor v3, turn-off variant 1)	54.8 nM				57.5 nM	75.8 nM
GCUAGGCAUGUCAGGAUAUGCAGAUCCUUGGAUCUGCAGAAGGGACAUGAGGAUCACCCAUGUGCCAACCUAGC [Mat - Exclusion 4 - JL Mod - D11] (Eterna round: R97, puzzle: Brourd's mod of Exclusion 4)		609 nM	47 nM			
CCGGAAAUGCAGGAUAUCGUAUCGGAUACGAUACGAGAAGGGUAUACAUGAGGAUCACCCAUGUGUCCUCCCGG [Fiskers Ex 6 - 53] (puzzle: Exclusion 6)	28 nM					
UAUUAGUAAGGAUAUCUCUGCAUGGACGAAAGUCCAUGCAGAGAGAAGGUACAUGAGGAUCACCCAUGUUCAUU [Mod of Fisker 17 - Jieux - Exclusion 4] (Eterna round: R97, puzzle: Exclusion 4)		17.1 nM	15 nM			
CCCAUGUUAGGAUAUAUGGAAGGGCAGACGGGCGCCCUAAGGUAGAAGGAACAUGAGGAUCACCCAUGUAAUAA [Zausteesre] (Eterna round: R97, puzzle: Exclusion 4)		113 nM	67.3 nM			
UUCUUGGCAGGAUAUGCUCUUUUAGACAUGAGGAUCACCCAUGUGUUUAUUCUUUUUUUUGCAGAAGGGCCUUAAU [JR_E5_Sub044] (Eterna round: R96, puzzle: Exclusion 5)		176 nM	98.1 nM	68.6 nM		
GGCUAGUGAGGAUAUACGUGCAGUCCUCAGUCGCCAGUCGGACAUGAGGAUCACCCAUGUAGAAGGUAUCGGCA [Beesraat] (puzzle: Exclusion 2)	30.2 nM					
GCCCGGGCAGGAUAUACGUGGCCCGGGUAACCGGGCCUCAGACAUGAGGAUCACCCAUGUAGAAGGGCCCGGGC [-44, -43.8 kcal, A 22%] (Eterna round: R97, puzzle: Exclusion 2)		18.1 nM	18.3 nM			
UUGUUACAUGAGGAUCACCCAUGUGAGGAUAUGGUUCAGUACUGUCAUGUCAAGUACUCCAGAAGGCACAUGUU [1st #30] (Eterna round: R97, puzzle: Exclusion 1)		566 nM	508 nM			
AAUAAUAGCGAGGAUAUCGUAUCGGAAACGAUACGAGAAGGCGUAACAUGAGGAUCACCCAUGUUCCUCAAUAA [Fiskers Ex 6 - 3] (puzzle: Exclusion 6)	39.7 nM					

Sequence	apparent KD of MS2 coat protein [1]	apparent KD of MS2 coat protein (input ligand: FMN 200 uM)	apparent KD of MS2 coat protein (input ligand: none)	apparent KD of MS2 coat protein [2]	apparent KD of MS2 coat protein [3]	apparent KD of MS2 coat protein [4]
AUGAACAAUGUAGGAUAUGCGUGGCGAAGCUAUGCAGAAGGACAUGAGGAUCACCCAUGUUCAAGCGUCUGCGUACAGAUGCUA [JL eng1 1.35 mod 7] (Eterna round: R96, puzzle: Exclusion NG 1)		26.9 nM	13.8 nM	10.3 nM		
AAAUAGCUAGAGGAUAUUGGAUAGGAUUUAGUACGAGAAGGUUAGACAUGAGGAUCACCCAUGUUGUGUUGGGA [EX6 #16] (Eterna round: R97, puzzle: Exclusion 6)		49.2 nM	52.9 nM			
CCCAGGGCAGGAUAUAGAGGGUGAAACAUGAGGAUCACCCAUGUGACCUCGGAACAGCUGCUAGAAGGGCCAAAUU [Eszaraxe] (puzzle: Exclusion 5)	15.3 nM				19.2 nM	16.3 nM
CGAUAAAAGACAGGAUAUGAGGAGAGAGAGAGAUCAGAAGGGUCACAUGAGGAUCACCCAUGUGAGUUCUCGAUAAGAAACACC [Prohibition 53 - Jieux - Exclusion NG 1] (Eterna round: R96, puzzle: Exclusion NG 1)		13.8 nM	19.3 nM	14.5 nM		
GGUGCGUAUGUGAGGAUAUGCUGGUCCUUGGGUCGGCAGAAGGCACAUGAGGAUCACCCAUGUGGUGUCGUUCC [salish99_Bmod_ex4_101] (puzzle: Brourd's mod of Exclusion 4)	68 nM					
UGUACGAUGCGUGCUGACAUGCGUCGUGCAGCAGGUGAUACAUGAGGAUCACCCAUGUCCUCAUUUGCUCGUCUUAU [Mat - Sensor v3 - Turn-off var 2 - D23] (puzzle: Sensor v3, turn-off variant 2)	218 nM				53.5 nM	55.6 nM
UUACGGCGGAUCGUGGCUUUUUGCUCGUCUUGUGCUACAACAUGAGGAUCACCCAUGUAGAGGUGAUCCGUUGUAUU [Grok-var2-19 mod JAL] (Eterna round: R96, puzzle: Sensor v3, turn-off variant 2)		342 nM	740 nM	13.4 nM		
GUCCCACAUGAGGAUCACCCAUGUGAGGAUAUGGUUUCGCUGGCCGUAGCCAGUGGAACCAGAAGGCGCAUGAU [Mat - Exclusion 1 - JL Mod - D2] (Eterna round: R97, puzzle: Exclusion 1)		25.2 nM	20.3 nM			
ACUCUGCGAGGAUAUACAUGAGGAUCACCCAUGUGCGAGUUACUUGUGAGGUCGGUUGGUAGAAGGCGCGGAGA [Mat - Exclusion 3 - Mod of JL D101] (puzzle: Exclusion 3)	89.7 nM					
UUCGUGCAGCUUUGCUGUACGCGUACAUGAGGAUCACCCAUGUAGGAUAUGGUACGCAAAGCGUGCUAGAAGGAUAUGGAGAGG [Mat - Exclusion NG 3 - Mod of JL - D81] (Eterna round: R96, puzzle: Exclusion NG 3)		11.7 nM	13.1 nM	8.08 nM		
UAUAUAUAGUAAGGAUAUGUAAUUGUUUUAUAAACAGAAGGUACUGACAUGAGGAUCACCCAUGUUUUAGUGUGGGCAUGUAGA [JMF's solution 33] (Eterna round: R96, puzzle: Exclusion NG 1)				45.7 nM		
AAUGGAUGUGUUAGGAUAUCCGGAGGGAAACCUCCGGAGAAGGAACAUGAGGAUCACCCAUGUAUGUAAAAUAC [AK-MS2ROC-r4-Bmoexclusion4-3] (Eterna round: R97, puzzle: Brourd's mod of Exclusion 4)		449 nM	111 nM			
AAGAAACAUGAGGAUCACCCAUGUGAGGAUAUGACCAAGAAAAGAAAAGAAAGAAGAAUCAGAAGGCACAAAGG [salish99-ex1_r3_051] (puzzle: Exclusion 1)	47.2 nM				47.7 nM	70.2 nM
GCUCGAAGGAGUGGGAGCAACAUGAGGAUCACCCAUGUGCGGCUAUUUCAUGCUCGUCUUAAAGCUUUGCCCUAGCC [Eternabot (Original) Solution 40] (Eterna round: R97, puzzle: Sensor, turn-off variant 1)		17.2 nM	18.5 nM			
AGAGAUGCCCAUGGCCGCAAGCUUUUUGCUUGUCUUACCACAUGAGGAUCACCCAUGUGACAUGGGCUCCUUAUAAU [Essoator] (puzzle: Sensor v3, turn-off variant 2)	9.99 nM				13.5 nM	12.1 nM
